B1: 2F5 CDRH3 length-altered variant r2 (antibody, V domains shown)
VH: RITLKESGPPLVKPTQTLTLTCSFSGFSLSDFGVGVGWIRQPPGKALEWLAIIYSDDDKRYSPSLNTRLTITKDTSKNQVVLVMTRVSPVDTATYFCAHRRGPTLFGVIARGPVNAMDVWGQGITVTISS
VL: ALQLTQSPSSLSASVGDRITITCRASQGVTSALAWYRQKPGSPPQLLIYDASSLESGVPSRFSGSGSGTEFTLTISTLRPEDFATYYCQQLHFYPHTFGGGTRVDVR
B2: 2F5 CDRH3 length-altered variant r6 (antibody, V domains shown)
VH: RITLKESGPPLVKPTQTLTLTCSFSGFSLSDFGVGVGWIRQPPGKALEWLAIIYSDDDKRYSPSLNTRLTITKDTSKNQVVLVMTRVSPVDTATYFCAHRRGLFGVRGPVNAMDVWGQGITVTISS
VL: B1 VL
B3: wt 2F5 antibody (antibody, V domains shown)
VH: RITLKESGPPLVKPTQTLTLTCSFSGFSLSDFGVGVGWIRQPPGKALEWLAIIYSDDDKRYSPSLNTRLTITKDTSKNQVVLVMTRVSPVDTATYFCAHRRGPTTLFGVPIARGPVNAMDVWGQGITVTISS
VL: B1 VL
notes: also called 2F5 Mab; Mab 2F5
B4: 2F5 CDRH3 length-altered variant r4 (antibody, V domains shown)
VH: RITLKESGPPLVKPTQTLTLTCSFSGFSLSDFGVGVGWIRQPPGKALEWLAIIYSDDDKRYSPSLNTRLTITKDTSKNQVVLVMTRVSPVDTATYFCAHRRGPLFGVARGPVNAMDVWGQGITVTISS
VL: B1 VL
B5: 2F5 CDRH3 length-altered variant e4 (antibody, V domains shown)
VH: RITLKESGPPLVKPTQTLTLTCSFSGFSLSDFGVGVGWIRQPPGKALEWLAIIYSDDDKRYSPSLNTRLTITKDTSKNQVVLVMTRVSPVDTATYFCAHRRGPTTGGLFGVGGPIARGPVNAMDVWGQGITVTISS
VL: B1 VL
B6: 2F5 CDRH3 length-altered variant e2 (antibody, V domains shown)
VH: RITLKESGPPLVKPTQTLTLTCSFSGFSLSDFGVGVGWIRQPPGKALEWLAIIYSDDDKRYSPSLNTRLTITKDTSKNQVVLVMTRVSPVDTATYFCAHRRGPTTGLFGVGPIARGPVNAMDVWGQGITVTISS
VL: B1 VL

Legend:
[1] = target: T1, wt MPER peptide (HIV-1, strain  (synthetic …)); assay: cell-based or functional assay
[2] = target: T1, wt MPER peptide; assay: BLI; Octet Red; Mabs captured on anti-human IgG Fc biosensors (10 µg/mL), peptides or ES2 as analyte in solution, two-fold dilutions 500 nM to 7.81 nM, PBS pH 7.4, 0.2% Tween 20, 60 s association and 60 s dissociation, no lipid; Langmuir 1:1 fit; also used for the alanine-substituted MPER peptides; details: both partners purified
[3] = target: T2, linked peptide (HIV-1, strain  (synthetic …)); assay: as above; details: both partners purified
T2 construct: source: synthetic peptide (Genscript)

[4] = target: T1, wt MPER peptide; assay: BLI; details: both partners purified
[5] = target: T2, linked peptide; assay: BLI; details: both partners purified

Binder	IC50 of neutralisation of JR-CSF Env-pseudotyped HIV-1, single-cycle infectivity assay on TZM-bl cells [1]	IC50 of neutralisation of JR-FL Env-pseudotyped HIV-1, single-cycle infectivity assay on TZM-bl cells [1]	Kd [2]	koff [2]	kon [2]	Kd [3]	koff [3]	kon [3]	Kd [4]	koff [4]	kon [4]	Kd [5]	koff [5]	kon [5]
B1	98 µg/mL	111 µg/mL	90.2 nM	0.0051 s⁻¹	50000 M⁻¹ s⁻¹	55.8 nM	0.0085 s⁻¹	150000 M⁻¹ s⁻¹	–	–	–	–	–	–
B2	–	–	390 nM	0.0189 s⁻¹	40000 M⁻¹ s⁻¹	125 nM	0.0237 s⁻¹	180000 M⁻¹ s⁻¹	–	–	–	–	–	–
B3	–	–	–	–	–	–	–	–	3.1 nM	0.0007 s⁻¹	230000 M⁻¹ s⁻¹	2.2 nM	0.0007 s⁻¹	360000 M⁻¹ s⁻¹
B4	–	–	382 nM	0.0081 s⁻¹	20000 M⁻¹ s⁻¹	96.8 nM	0.0105 s⁻¹	100000 M⁻¹ s⁻¹	–	–	–	–	–	–
B5	–	–	239 nM	0.0101 s⁻¹	40000 M⁻¹ s⁻¹	78.6 nM	0.0104 s⁻¹	130000 M⁻¹ s⁻¹	–	–	–	–	–	–
B6	–	–	463 nM	0.0087 s⁻¹	10000 M⁻¹ s⁻¹	26.9 nM	0.0035 s⁻¹	130000 M⁻¹ s⁻¹	–	–	–	–	–	–
